According to patent publication US9221867B2, “Method for transporting a compound across the blood-brain barrier” (Angiochem Inc., priority 2003, dated 2015):
“Also recorded” adds a separate entry of the source. Where two headings read alike, the source gives them in different places. Where a SMILES comes first, the peptide text is derived from it.

Legend:
[1] = test system: endothelial cell monolayers (in vitro blood-brain barrier model); assay: Permeability coefficient (Pe) of proteins in the in vitro blood-brain barrier model; details: for Ratios (permeability coefficients): Pe of Angio-pep1 divided by Pe of the named protein; for Permeability coefficient (Pe): in vitro blood-brain barrier model
Description: (§1) The permeability coefficient (Pe) was calculated as:
(§2) At the end of the experiments, amounts of the radiotracers in the basolateral compartment were measured in a liquid scintillation counter. The permeability coefficient (Pe) for sucrose was calculated as previously described (Dehouck, M. P., Jolliet-Riant, P., Brée, F., Fruchart, J. C., Cecchelli, R., Tillement, J. P., J. Neurochem. 58:1790-1797, 1992) using filters coated or non-coated with EC.
(§3) The transport of Angio-pep1 from the apical-to-basolateral side of inserts covered with or without endothelial cell monolayers was measured. The results are expressed as the clearance of Angio-pep1 as a function of time. The slopes correspond to the permeability of the peptide through the filter alone (Psf) and to the total permeability of the endothelial cell monolayers (Pst).
(§4) The permeability coefficients for Angio-pep1, aprotinin, leptin and transferrin were determined using the in vitro blood-brain barrier model. The permeability coefficient (Pe) was calculated as described above.

[2] = in vitro; details: bovine
Description: as §1, §2, §3, §4

[3] = test system: endothelial cell monolayers (in vitro blood-brain barrier model)
Description: as §1, §2, §3, §4

[4] = test system: bovine brain capillary endothelial cells (BBCECs)
Description: (§5) The model consists of a co-culture of bovine brain capillary endothelial cells and rat glial cells.
(§6) The in vitro model of BBB was established by using a co-culture of BBCECs and astrocytes. Prior to cell culture, plate inserts (Millicell-PC 3.0 μM; 30-mm diameter) were coated on the upper side with rat tail collagen. They were then set in six-well microplates containing the astrocytes and BBCECs were plated on the upper side of the filters in 2 mL of co-culture medium. This BBCEC medium was changed three times a week. Under these conditions, differentiated BBCECs formed a confluent monolayer 7 days later. Experiments were performed between 5 and 7 days after confluence was reached. The permeability coefficient for sucrose was measured to verify the endothelial permeability.
(§7) Briefly, after removing the meninges, the brain tissue was forced gently through a 82 μm nylon sieve. Astrocytes were plated on six-well microplates at a concentration of 1.2×10^5 cells/mL in 2 mL of optimal culture medium (DMEM) supplemented with 10% heat inactivated fetal bovine serum. The medium was changed twice a week.
(§8) Bovine brain capillary endothelial cells (BBCECs) were obtained from Cellial Technologies. The cells were cultured in the presence of DMEM medium supplemented with 10% (v/v) horse serum and 10% heat-inactivated calf serum, 2 mM of glutamine, 50 μg/mL of gentamycin, and 1 ng/mL of basic fibroblast growth factor, added every other day.
(§9) One insert covered with BBCECs was set into a six-well microplate with 2 mL of Ringer-Hepes and was pre-incubated for 2 h at 37° C. [^125I]-aprotinin, [^125I]-p97, [^125I]-ceruloplasmin or [^125I]-transferrin (250 nM final concentration) was added to the upper side of the filter covered with cells. At various times, the insert was transferred to another well to avoid a possible reendocytosis of [^125I]-proteins by the abluminal side of the BBCECs. At the end of experiment, [^125I]-proteins were assessed in 500 μL of the lower chamber of well by TCA precipitation.
(§10) Aprotinin, p97 and bovine holo-transferrin were iodinated with standard procedures using iodo-beads from Sigma™. Bovine holo-transferrin was diluted in 0.1M phosphate buffer, pH 6.5 (PB). P97 obtained from Synapse Technologies in neutralized citrate at pH 7.0 was dialyzed against this PB. Two iodo-beads were used for each protein. These beads were washed twice with 3 mL of PB on a Whatman™ filter and resuspended in 60 μL of PB. ^125I (1 mCi) from Amersham-Pharmacia biotech was added to the bead suspension for 5 minutes at room temperature. The iodination for each protein was initiated by the addition of 100 μg (80-100 μL).

[5] = test system: bovine brain capillary endothelial cells (BBCECs); assay: Transcytosis of 125I-proteins across BBCEC monolayers (in vitro blood-brain barrier model); details: for Transcytosis: across in vitro BBB model; for Ratios Aprotinin/Protein: aprotinin transcytosis divided by that of the named protein
Description: as §5, §6, §7, §8, §9, §10

[6] = test system: BBCEC monolayers; assay: SDS-PAGE/autoradiography of protein integrity after transcytosis across BBCEC monolayers; format: in vitro ADME, bovine; details: 250 nM, SDS-PAGE, FIG. 4
Description: At each time point, filters were put in the next well of the 6-well plates. At the end of the experiment, aliquots were taken in each well and submitted to SDS-PAGE. Gels were then submitted to detection by autoradiography. The results, presented in FIG. 4, indicate that aprotinin integrity is not affected by its transcytosis across BBCEC monolayers.

[7] = test system: mouse brain; assay: In situ mouse brain perfusion (apparent volume of distribution); details: 10 min perfusion
Description: The uptake of [^125I]-aprotinin to the luminal side of mouse brain capillaries was measured using the in situ brain perfusion method adapted in our laboratory for the study of drug uptake in the mouse brain (Dagenais et al., 2000, J. Cereb. Blood Flow Metab. 20(2):381-386). Briefly, the right common carotid of ketamine/xylazine (140/8 mg/kg i.p.) anesthetized mice was exposed and ligated at the level of the bifurcation of the common carotid, rostral to the occipital artery. The common carotid was then catheterized rostrally with polyethylene tubing (0.30 mm i.d.×0.70 mm o.d.) filled with heparin (25 U/ml) and mounted on a 26-gauge needle. The syringe containing the perfusion fluid (10 nM of [^125I]-aprotinin in Krebs/bicarbonate buffer at a pH7.4 gassed with 95% O2 and 5% CO2) was placed in an infusion pump (Harvard pump PHD 2000; Harvard Apparatus) and connected to the catheter. […]
Aprotinin uptake was expressed as the volume of distribution (Vd) from the following equation: Vd=Q*br/C*pf where Q*br is the calculated quantity of [^125I]-aprotinin per gram of right brain hemisphere and C*pf is the labeled tracer concentration measured in the perfusate.
The brain apparent volume of distribution was measured for [^125I]-transferrin, [^125I]-aprotinin and [^125I]-Angio-pep1. […]

| Molecule | Ratios (permeability coefficients) [1] | Permeability coefficient (Pe) [1] | Transcytosis [5] | Ratios Aprotinin/Protein [5] | also measured |
| --- | --- | --- | --- | --- | --- |
| Leptin: comparison protein for permeability coefficient [reference compound] | 21 | 0.917 ×10⁻⁶ cm/s |  |  |  |
| C[C@@H](O)[C@H](N)C(=O)N[C@@H](Cc1ccccc1)C(=O)N[C@@H](Cc1ccccc1)C(=O)N[C@@H](Cc1ccc(O)cc1)C(=O)NCC(=O)NCC(=O)N[C@@H](CS)C(=O)N[C@@H](CCCNC(=N)N)C(=O)NCC(=O)N[C@@H](CCCCN)C(=O)N[C@@H](CCCNC(=N)N)C(=O)N[C@@H](CC(N)=O)C(=O)N[C@@H](CC(N)=O)C(=O)N[C@@H](Cc1ccccc1)C(=O)N[C@@H](CCCCN)C(=O)N[C@H](C(=O)N[C@@H](CCC(=O)O)C(=O)N[C@@H](CCC(=O)O)C(=O)N[C@@H](Cc1ccc(O)cc1)C(=O)O)[C@@H](C)O [Angio-pep1] (H-TFFYGGCRGKRNNFKTEEY-OH; N-terminus and C-terminus assumed) |  |  |  |  | Papp A→B [2]: 20 ×10⁻⁶ cm/s; Ratios (permeability coefficients) [3]: 1; Permeability coefficient (Pe) ([3]; bovine): 20 ×10⁻⁶ cm/s; transcytosis capacity compared with other proteins [4]: higher than that of other proteins including aprotinin, leptin and transferrin |
| aprotinin | 7.5 | 2.67 ×10⁻⁶ cm/s | 2.7 pmol/h/cm^2 | 1 | transcytosis capacity compared with other proteins ([5]; in vitro blood-brain barrier model): higher transcytosis capacity than transferrin, p97 or ceruloplasmin; transendothelial transport / transcytosis of aprotinin higher than that of other proteins ([5]; versus other tested proteins incl. transferrin, ceruloplasmin): 10-50 fold; integrity of the protein after transcytosis across BBCEC monolayers [6]: not affected; brain uptake / apparent volume of distribution [7]: higher brain uptake; also recorded: higher than that of transferrin |
| Streptavidin: comparison protein in transcytosis experiment [reference compound] |  |  | 0.09 pmol/h/cm^2 | 30 |  |
